The labels stand for the following.
B1: AC1 (chicken-derived anti-hCD20 mAb, chicken-human chimeric) (antibody, human IgG1, V domains shown)
VH: AVTLDESGGGLQTPGGGLSLVCKASGFDFSSYAMVWVRQAPGKGLEYVGEITNYAAGSGTWYGAAVKGRATISRDNGQSTVRLQLNNLRAEDTATYYCAKGPISGSIGYLSSIDAWGHGTEVIVSS
VL: ALTQPSSVSANPGETVKITCSGGSSRYGYGWYQQKSPGSAPVTVIYWNDKRPSDIPSRFSGSKSGSTGTLTITGVRAEDEAVYYCGNYDNNDPAFGAGTTLTVL
modifications: Atto 488 NHS-ester label on lysines in the direct immunofluorescence and mCD20 assays (positions not defined)
notes: Chicken VH fused to human CH1 and CH2-CH3 of human IgG1; chicken VL fused to human kappa constant domain; made in Expi293F cells; also called chAC1
B2: ACR8 (chicken-derived anti-hCD20 mAb, chicken-human chimeric) (antibody, human IgG1, V domains shown)
VH: AVTLDESGGGLQTPGGALSLVCKASGFSFDRHGMFWVRQAPGKGLEWVAGIRSTGSYPKYGPAVKGRATISRDNGQSTVRLQLNNLRAEDTARYFCVRNVYIGDYDGDSIDAWGHGTEVIVSS
VL: ALTQPSSVSANLGGTVEITCSGSSSGYGSYYGWYQQKSPGSAPVTVIYENTNRPSNIPSRFSGSESGSTATLTITGVQAEDEAVYFCGSADDSGNSAIFGAGTTLTVL
modifications: Atto 488 NHS-ester label on lysines in the direct immunofluorescence and mCD20 assays (positions not defined)
notes: Chicken VH fused to human CH1 and CH2-CH3 of human IgG1; chicken VL fused to human kappa constant domain; made in Expi293F cells; also called chACR8
B3: AC11 (chicken-derived anti-hCD20 mAb, chicken-human chimeric) (antibody, human IgG1, V domains shown)
VH: AVTLDESGGGLQTPGGALSLVCKASGFDFSSSYINWVRQAPGKGLEYVAQINKDGGGSWYAPVVKGRATISRDNGQSTVRLQLSNLRAEDTGIYFCAKNADSGCVGVGGCIDTWGHGTEVIVSS
VL: ALTQPSSVSANPGETVKITCSGGSYYYGGNYYYGWYQQKSPGSAPVTLIYNNNKRPSDIPSRFSGSTSGSTGTLTITGVQADDEAVYYCGGYDSSYVAIFGAGTTLTVL
modifications: Atto 488 NHS-ester label on lysines in the direct immunofluorescence and mCD20 assays (positions not defined)
notes: Chicken VH fused to human CH1 and CH2-CH3 of human IgG1; chicken VL fused to human kappa constant domain; made in Expi293F cells; also called chAC11; parental AC11
B4: ACR7 (chicken-derived anti-hCD20 mAb, chicken-human chimeric) (antibody, human IgG1, V domains shown)
VH: AVTLDESGGGLQTPGGALSLVCKASGFTFNSNGMGWVRQAPGKGLEWVAGIHSSGRYTYYGTAVKGRATISRDNGQSTVRLQLNDLRAEDTATYYCAKNADSAYGYWYAGSIDAWGHGTEVIVSS
VL: ALTQPSSVSANLGGTVEITCSGGYSSYGYSWHQQKSPASAPVTLIYNNNNRPSDIPSRFSGSASGSTATLTITGVQAEDEAVYYCAFTDYSSLAGVFGAGTTLTVL
modifications: Atto 488 NHS-ester label on lysines in the direct immunofluorescence and mCD20 assays (positions not defined)
notes: Chicken VH fused to human CH1 and CH2-CH3 of human IgG1; chicken VL fused to human kappa constant domain; made in Expi293F cells; also called chACR7
B5: Rituximab (antibody, V domains shown)
VH: QVQLQQPGAELVKPGASVKMSCKASGYTFTSYNMHWVKQTPGRGLEWIGAIYPGNGDTSYNQKFKGKATLTADKSSSTAYMQLSSLTSEDSAVYYCARSTYYGGDWYFNVWGAGTTVTVSA
VL: QIVLSQSPAILSASPGEKVTMTCRASSSVSYIHWFQQKPGSSPKPWIYATSNLASGVPVRFSGSGSGTSYSLTISRVEAEDAATYYCQQWTSNPPTFGGGTKLEIK
B6: hAC11-10 (humanized variant of mAb AC11) (antibody, V domains shown)
VH: EVQLVESGGGLVQPGGSLRLSCKASGFTFSSSYINWVRQAPGKGLEYVAQINKDGGGSWYAPVVKGRFTISRDNAKNTVYLQMNSLRAEDTAVYYCAKNADSGCVGVGGCIDTWGQGTTVTVSS
VL: SYELTQPSSVSVSPGQTVRITCSGGSYYYGGNYYYGWYQQKPGQAPVTVIYNNNKRPSGIPERFSGSNSGNTGTLTISGVQAEDEADYYCGGYDSSYVAIFGGGTKLTVL
notes: Humanized variable regions; constant regions not restated for this variant (the parental format is human IgG1 with a human kappa constant domain)

The target of the first assay is T1, human CD20 on Raji B lymphoma cells (human, UniProt P11836 1-297).
T1 sequence (looked up): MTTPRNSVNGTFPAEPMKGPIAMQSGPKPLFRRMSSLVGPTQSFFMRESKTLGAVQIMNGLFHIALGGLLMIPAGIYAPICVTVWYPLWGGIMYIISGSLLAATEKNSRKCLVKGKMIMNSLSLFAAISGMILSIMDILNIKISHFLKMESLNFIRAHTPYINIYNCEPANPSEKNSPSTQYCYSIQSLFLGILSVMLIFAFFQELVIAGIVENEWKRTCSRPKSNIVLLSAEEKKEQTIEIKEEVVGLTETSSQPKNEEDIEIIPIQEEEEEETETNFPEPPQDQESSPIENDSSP
Briefly: cell-based or functional assay.
Take B1: the “ADCC signaling, ADCC reporter bioassay (FcgRIIIa V158 Jurkat pseudoeffector cells, Raji targets; fold over Rituximab)” value is > 100 fold relative to Rituximab and the “target cell lysis, PBMC ADCC bioassay on Raji cells (fold over Rituximab)” value (shortened to “target cell lysis … (fold over Rituximab)”) was ~10 fold relative to Rituximab.

As to B2, the “ADCC signaling, ADCC reporter bioassay (FcgRIIIa V158 Jurkat pseudoeffector cells, Raji targets; fold over Rituximab)” value is > 100 fold relative to Rituximab and the “target cell lysis … (fold over Rituximab)” value is ~10 fold relative to Rituximab.

For the molecule B3, the “ADCC signaling, ADCC reporter bioassay (FcgRIIIa V158 Jurkat pseudoeffector cells, Raji targets; fold over Rituximab)” value was > 100 fold relative to Rituximab and the “target cell lysis … (fold over Rituximab)” value was ~10 fold relative to Rituximab.

As to B4, the “ADCC signaling, ADCC reporter bioassay (FcgRIIIa V158 Jurkat pseudoeffector cells, Raji targets; fold over Rituximab)” value was > 100 fold relative to Rituximab and the “target cell lysis … (fold over Rituximab)” value is ~10 fold relative to Rituximab.

In the next assay the target is T2, mouse CD20 on transfected HEK293T cells (mouse, UniProt P19437 1-291).
T2 construct: whole, on cells; Expressed from pCMV5 mCD20 in HEK293T cells; also called mCD20; MS4A1
T2 sequence (looked up): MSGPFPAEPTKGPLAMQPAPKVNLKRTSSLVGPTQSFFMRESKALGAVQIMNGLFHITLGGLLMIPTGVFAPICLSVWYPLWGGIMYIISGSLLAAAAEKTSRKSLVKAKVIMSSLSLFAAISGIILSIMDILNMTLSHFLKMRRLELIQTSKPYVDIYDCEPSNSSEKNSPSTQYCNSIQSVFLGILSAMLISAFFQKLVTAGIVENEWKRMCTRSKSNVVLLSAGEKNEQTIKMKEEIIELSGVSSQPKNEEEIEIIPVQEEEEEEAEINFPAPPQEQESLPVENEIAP
Briefly: flow cytometry with Atto 488-labeled Ab on HEK293T cells transfected with pCMV5-mCD20 versus pCMV5 (mock). As for the experimental part: The identity of the Abs is indicated at the top. Anti-mCD20: commercially obtained anti-mCD20 Ab (eBioscience/Thermo Fisher). Data are from one of two independent, representative experiments.
Cross-reactivity of anti-hCD20 mAbs with mouse CD20: HEK293T cells in P100 tissue culture dishes were transfected at 70-90% confluency with […] pCMV5 mCD20 expression plasmid or parental pCMV5 (mock transfection) using jetOPTIMUS (Polyplus-transfection) reagent per the manufacturer's recommended protocol at a 1:1 jetOPTIMUS:DNA (L: g) ratio. Two days post transfection, the supernatant on the transfected cells was aspirated and the cells dislodged by vigorous pipetting with DPBS (HyClone). The cells were pelleted by centrifugation and the buffer replaced with 8 mL chilled blocking buffer (DPBS/10% FBS). The cells were blocked with gentle rocking at 4° C. for 30 minutes. […] of the blocked cells were transferred to individual wells of a conical-bottom 96-well plate and the cells were pelleted by centrifugation prior to incubation with […] of […] A488-labeled anti-hCD20 Abs or […] A488-labeled anti-mouse CD20 Ab (eBioscience/Thermo Fisher) at 4° C. with rocking for 1 hour. The Ab-coated cells were washed three times with cold DPBS/1% BSA and resuspended in […] DPBS/1% BSA prior to flow cytometric analysis in the FITC channel using a BD LSRFortessa X-20 cytometer. Histogram plots were generated with Flowing Software v2.5.1 (University of Turku).
(A flow cytometer gives signals particle by particle.)
In the case of B2, the binding result is given as “no binding”.

As to B3, the binding result is “no binding”.

Turning to B4, the binding result was “no binding”.

A further assay addresses T1, human CD20 on Raji B lymphoma cells. Briefly: flow cytometry on Raji cells, direct immunofluorescence with A488-labeled Ab, MFI against concentration, 5PL fit [panel A]. As to the method:
Raji cells were incubated with A488-labeled anti-hCD20 Abs followed by washing and flow cytometric analysis using a BD LSRFortessa X-20 instrument. The median fluorescence intensities (MFIs) of Ab-coated cells were determined using FlowJo software and fitted to an asymmetric sigmoidal 5PL curve using GraphPad Prism. Data are the mean±SD of duplicate measurements and are from one of two independent, representative experiments.
Take B1: the EC50 (in general, the concentration at which the effect is half-maximal) was 2.5 µg/mL.

On to B2, for which the midpoint of the response, the EC50, lay at 2 µg/mL. The EC50 values of the last two molecules are within 1.5-fold of each other.

B3 yielded an EC50 of 5.7 µg/mL. Compared with the last molecule, the EC50 is about 2.9-fold higher.

With B4, the EC50 came out at 7.3 µg/mL.

Consider B5, for which the concentration for a half-maximal effect (EC50) was determined as 5.6 µg/mL.

The target is the same in the next assay. The assay is described as follows: flow cytometry on Raji cells, indirect immunofluorescence (Atto 488-labeled anti-human Fc secondary Ab), median fluorescence intensity. As to the method: Median fluorescence intensities (MFIs) from histograms calculated using FlowJo software were used to generate the binding curves in FIG. 8. The identity and concentration of the Ab and calculated MFI is shown in the insets of histograms.
(§1) Binding of anti-hCD20 mAbs to Raji cells: Anti-hCD20 Abs diluted in DPBS/1% bovine serum albumin (BSA) were incubated with 6×10⁵ Raji cells in V-bottom 96-well plates at 4° C. for 1 hour in a final volume of […]. […] Binding of mAbs to live single cells gated by light scatter characteristics was measured using a BD LSRFortessa X-20 flow cytometer. The binding of bacteriophage displaying the Fab portions of the chicken Abs to hCD20-transfected Chinese hamster ovary (CHO) cells was also measured (FIG. 4).
Turning to B1, the “MFI at 16.7 µg/mL” value stood at 20000.

As to B2, the “MFI at 16.7 µg/mL” value came to 21000.

As for B3, the “MFI at 16.7 µg/mL” value is 19000.

For B4, the “MFI at 16.7 µg/mL” value amounted to 18000.

Take B5: the “MFI at 16.7 µg/mL” value is 14000.

A further assay shares this target. Briefly: flow cytometry on Raji cells, indirect immunofluorescence (Atto 488-labeled anti-human Fc secondary Ab), MFI against concentration, 5PL fit. As to the method: The median fluorescence intensity (MFI) of Ab-coated cells was determined using FlowJo software. Data for the lowest mAb concentration derives from cells incubated with just buffer (no Ab). […] Values are the mean±SD of duplicate measurements.
as §1
As for B1, the EC50 was determined as 1.8 µg/mL.

In turn, B2 displayed an EC50 of 2 µg/mL.

B3 gave an EC50 of 3.2 µg/mL.

The molecule B4 had an EC50 of 5.9 µg/mL.

As for B5, the EC50 was 4.5 µg/mL.

The next assay has the same target. The assay is described as follows: flow cytometry on Raji cells (binding/hCD20 receptor occupancy), A488-labeled secondary anti-human IgG Fcγ Ab, MFI against concentration, 5PL fit. As to the method: The experiment was carried out by detection of bound unlabeled anti-hCD20 Abs using A488-labeled secondary anti-human IgG Fcγ Ab. Median fluorescence values from flow cytometry were obtained using FlowJo software. EC₅₀ values were generated from an asymmetric sigmoidal 5PL fit using GraphPad Prism. Data are from one of two independent, representative experiments. […] All statistical analyses were by unpaired t test.
For the molecule B6, a half-maximal response (EC50) required 3.5 µg/mL.

The molecule B5 came in with an EC50 of 4.5 µg/mL. The EC50 values of the last two molecules are within 1.5-fold of each other.

The record behind these values is patent US20260055202A1 (TEXAS A AND M UNIVERSITY SYSTEM, published 2026).
